The subject of series [1] is HeLa Kyoto. Description: solubility change mitosis vs G1/S (difference of NP-40 vs SDS log2 ratios) (log2 ratio difference); higher = more soluble in mitosis.
Series [2] relates to HeLa Kyoto. The series is described as follows: solubility in G1/S (NP-40 vs SDS abundance) (log2 ratio); higher = more soluble. Conditions: cell cycle stage: G1/S.
The subject of series [3] is HeLa Kyoto. The series is described as follows: thermal stability score vs G1/S (z-score of summed log2 fold changes over temperatures); higher = more thermally stable than in G1/S.
Series [4] relates to HeLa Kyoto. Description: melting temperature (median over replicates), in situ; higher = more thermally stable.
Where [5] appears, read: cell cycle stage: early G1 (4.5 h after nocodazole release).
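Throughout, for melting temperature (median over replicates), in situ: HeLa Kyoto cells synchronized by double thymidine or nocodazole block, proteins quantified by TMT10plex mass spectrometry, three independent biological replicates.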
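Throughout, for solubility change mitosis vs G1/S (difference of NP-40 vs SDS log2 ratios): synchronized HeLa Kyoto cells (double thymidine block for G1/S, nocodazole release for mitosis), protein amounts in NP-40 versus SDS lysates quantified by mass spectrometry, three biological replicates.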
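Throughout, for solubility in G1/S (NP-40 vs SDS abundance): HeLa Kyoto cells arrested at G1/S by double thymidine block, proteins quantified by TMT10plex mass spectrometry in mild NP-40 versus SDS extracts, three biological replicates.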
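Throughout, for thermal stability score vs G1/S (z-score of summed log2 fold changes over temperatures): synchronized HeLa Kyoto cells, proteins quantified by TMT10plex mass spectrometry, three biological replicates, mitosis taken 0.5 h after nocodazole release, G1/S directly after double thymidine block.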

For “MIWYILIIGILLPQSLAHPGFFTSIGQMTDLIHTEKDLVTSLKDYIKAEEDKLEQIKKWAEKLDRLTSTATKDPEGFVGHPVNAFKLMKRLNTEWSELENLVLKDMSDGFISNLTIQRQYFPNDEDQVGAAKALLRLQDTYNLDTDTISKGNLPGVKHKSFLTAEDCFELGKVAYTEADYYHTELWMEQALRQLDEGEISTIDKVSVLDYLSYAVYQQGDLDKALLLTKKLLELDPEHQRANGNLKYFEYIMAKEKDVNKSASDDQSDQKTTPKKKGVAVDYLPERQKYEMLCRGEGIKMTPRRQKKLFCRYHDGNRNPKFILAPAKQEDEWDKPRIIRFHDIISDAEIEIVKDLAKPRLRRATISNPITGDLETVHYRISKSAWLSGYENPVVSRINMRIQDLTGLDVSTAEELQVANYGVGGQYEPHFDFARKDEPDAFKELGTGNRIATWLFYMSDVSAGGATVFPEVGASVWPKKGTAVFWYNLFASGEGDYSTRHAACPVLVGNKWVSNKWLHERGQEFRRPCTLSELE [P4HA1]”, the “solubility change mitosis (log2)” value in the series with HeLa Kyoto [1] was -0.0564. Besides, the “solubility in G1/S (log2)” value in the series with HeLa Kyoto [2] is 0.216. Moreover, the thermal stability score with HeLa Kyoto [3] (setting [5]) was 3.59; in the series on HeLa Kyoto [3] (cell cycle stage: mitosis), 6.2. In addition, the melting temperature with HeLa Kyoto [4] (cell cycle stage: G1/S) stood at 55.3 °C; in the series on HeLa Kyoto [4] (cell cycle stage: mitosis) it was 54.1 °C.

For “MKAFHTFCVVLLVFGSVSEAKFDDFEDEEDIVEYDDNDFAEFEDVMEDSVTESPQRVIITEDDEDETTVELEGQDENQEGDFEDADTQEGDTESEPYDDEEFEGYEDKPDTSSSKNKDPITIVDVPAHLQNSWESYYLEILMVTGLLAYIMNYIIGKNKNSRLAQAWFNTHRELLESNFTLVGDDGTNKEATSTGKLNQENEHIYNLWCSGRVCCEGMLIQLRFLKRQDLLNVLARMMRPVSDQVQIKVTMNDEDMDTYVFAVGTRKALVRLQKEMQDLSEFCSDKPKSGAKYGLPDSLAILSEMGEVTDGMMDTKMVHFLTHYADKIESVHFSDQFSGPKIMQEEGQPLKLPDTKRTLLFTFNVPGSGNTYPKDMEALLPLMNMVIYSIDKAKKFRLNREGKQKADKNRARVEENFLKLTHVQRQEAAQSRREEKKRAEKERIMNEEDPEKQRRLEEAALRREQKKLEKKQMKMKQIKVKAM [CCDC47]”, the “solubility change mitosis (log2)” value in the series on HeLa Kyoto [1] amounted to 0.000886. In addition, the “solubility in G1/S (log2)” value in the series on HeLa Kyoto [2] is -0.0628. The figures for the thermal stability score with HeLa Kyoto [3] (setting [5]) and in the series on HeLa Kyoto [3] (cell cycle stage: mitosis) were 0.286 and -1.13, respectively. Besides, the melting temperature in the series with HeLa Kyoto [4] (cell cycle stage: G1/S) worked out at 52.9 °C; in the series on HeLa Kyoto [4] (cell cycle stage: mitosis), 52.7 °C.

Consider “MKCFFPVLSCLAVLGVVSAQRQVTVQEGPLYRTEGSHITIWCNVSGYQGPSEQNFQWSIYLPSSPEREVQIVSTMDSSFPYAIYTQRVRGGKIFIERVQGNSTLLHITDLQARDAGEYECHTPSTDKQYFGSYSAKMNLVVIPDSLQTTAMPQTLHRVEQDPLELTCEVASETIQHSHLSVAWLRQKVGEKPVEVISLSRDFMLHSSSEYAQRQSLGEVRLDKLGRTTFRLTIFHLQPSDQGEFYCEAAEWIQDPDGSWYAMTRKRSEGAVVNVQPTDKEFTVRLETEKRLHTVGEPVEFRCILEAQNVPDRYFAVSWAFNSSLIATMGPNAVPVLNSEFAHREARGQLKVAKESDSVFVLKIYHLRQEDSGKYNCRVTEREKTVTGEFIDKESKRPKNIPIIVLPLKSSISVEVASNASVILEGEDLRFSCSVRTAGRPQGRFSVIWQLVDRQNRRSNIMWLDRDGTVQPGSSYWERSSFGGVQMEQVQPNSFSLGIFNSRKEDEGQYECHVTEWVRAVDGEWQIVGERRASTPISITALEMGFAVTAISRTPGVTYSDSFDLQCIIKPHYPAWVPVSVTWRFQPVGTVEFHDLVTFTRDGGVQWGDRSSSFRTRTAIEKAESSNNVRLSISRASDTEAGKYQCVAELWRKNYNNTWTRLAERTSNLLEIRVLQPVTKLQVSKSKRTLTLVENKPIQLNCSVKSQTSQNSHFAVLWYVHKPSDADGKLILKTTHNSAFEYGTYAEEEGLRARLQFERHVSGGLFSLTVQRAEVSDSGSYYCHVEEWLLSPNYAWYKLAEEVSGRTEVTVKQPDSRLRLSQAQGNLSVLETRQVQLECVVLNRTSITSQLMVEWFVWKPNHPERETVARLSRDATFHYGEQAAKNNLKGRLHLESPSPGVYRLFIQNVAVQDSGTYSCHVEEWLPSPSGMWYKRAEDTAGQTALTVMRPDASLQVDTVVPNATVSEKAAFQLDCSIVSRSSQDSRFAVAWYSLRTKAGGKRSSPGLEEQEEEREEEEEEDDDDDDDPTERTALLSVGPDAVFGPEGSPWEGRLRFQRLSPVLYRLTVLQASPQDTGNYSCHVEEWLPSPQKEWYRLTEEESAPIGIRVLDTSPTLQSIICSNDALFYFVFFYPFPIFGILIITILLVRFKSRNSSKNSDGKNGVPLLWIKEPHLNYSPTCLEPPVLSIHPGAID [IGSF3]”, for which, in the series on HeLa Kyoto [1], the “solubility change mitosis (log2)” value was -0.047. Further, the “solubility in G1/S (log2)” value in the series on HeLa Kyoto [2] is -0.0153. For the same sequence, the thermal stability score in the series with HeLa Kyoto [3] (setting [5]) is -2.57; in the series on HeLa Kyoto [3] (cell cycle stage: mitosis), -2.96. In addition, the melting temperature in the series on HeLa Kyoto [4] (cell cycle stage: G1/S) was 54.3 °C; with HeLa Kyoto [4] (cell cycle stage: mitosis), 53.8 °C.

In the case of “MKEPLLGGECDKAVASQLGLLDEIKTEPDNAQEYCHRQQSRTQENELKINAVFSESASQLTAGIQLSLASSGVNKMLPSVSTTAIQVSCAGCKKILQKGQTAYQRKGSAQLFCSIPCITEYISSASSPVPSKRTCSNCSKDILNPKDVISVQLEDTTSCKTFCSLSCLSSYEEKRKPFVTICTNSILTKCSMCQKTAIIQYEVKYQNVKHNLCSNACLSKFHSANNFIMNCCENCGTYCYTSSSLSHILQMEGQSHYFNSSKSITAYKQKPAKPLISVPCKPLKPSDEMIETTSDLGKTELFCSINCFSAYSKAKMESSSVSVVSVVHDTSTELLSPKKDTTPVISNIVSLADTDVALPIMNTDVLQDTVSSVTATADVIVDLSKSSPSEPSNAVASSSTEQPSVSPSSSVFSQHAIGSSTEVQKDNMKSMKISDELCHPKCTSKVQKVKGKSRSIKKSCCADFECLENSKKDVAFCYSCQLFCQKYFSCGRESFATHGTSNWKKTLEKFRKHEKSEMHLKSLEFWREYQFCDGAVSDDLSIHSKQIEGNKKYLKLIIENILFLGKQCLPLRGNDQSVSSVNKGNFLELLEMRAKDKGEETFRLMNSQVDFYNSTQIQSDIIEIIKTEMLQDIVNEINDSSAFSIICDETINSAMKEQLSICVRYPQKSSKAILIKERFLGFVDTEEMTGTHLHRTIKTYLQQIGVDMDKIHGQAYDSTTNLKIKFNKIAAEFKKEEPRALYIHCYAHFLDLSIIRFCKEVKELRSALKTLSSLFNTICMSGEMLANFRNIYRLSQNKTCKKHISQSCWTVHDRTLLSVIDSLPEIIETLEVIASHSSNTSFADELSHLLTLVSKFEFVFCLKFLYRVLSVTGILSKELQNKTIDIFSLSSKIEAILECLSSERNDVYFKTIWDGTEEICQKITCKGFKVEKPSLQKRRKIQKSVDLGNSDNMFFPTSTEEQYKINIYYQGLDTILQNLKLCFSEFDYCKIKQISELLFKWNEPLNETTAKHVQEFYKLDEDIIPELRFYRHYAKLNFVIDDSCINFVSLGCLFIQHGLHSNIPCLSKLLYIALSWPITSASTENSFSTLPRLKTYLCNTMGQEKLTGPALMAVEQELVNKLMEPERLNEIVEKFISQMKEI [ZMYM1]”, the “solubility change mitosis (log2)” value in the series on HeLa Kyoto [1] was -0.06. Moreover, the “solubility in G1/S (log2)” value in the series on HeLa Kyoto [2] is -0.155. Besides, the thermal stability score in the series with HeLa Kyoto [3] (setting [5]) turned out to be 0.329; with HeLa Kyoto [3] (cell cycle stage: mitosis) it was 0.818. For the same sequence, the melting temperature in the series on HeLa Kyoto [4] (cell cycle stage: mitosis) came to 50.4 °C.

The values are drawn from the supplement of paper PMC5998384.
